Data from the supplement of paper PMC9170038.

Assays:
MS2 coat protein [1] = experiment: apparent KD of MS2 coat protein, switch ON state; designed switch direction (-1 OFF switch, 1 ON switch): -1; higher = weaker reporter binding; conditions: FMN input: 0 or 200 uM; Eterna round: R93 (includes R88 designs)
Method in brief: (§1)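 Designed RNA switches were transcribed on-chip from Illumina sequencing clusters. They were then titrated with SNAP-549-labelled MS2 coat protein (twofold steps, 0.7 or 1.5 nM to 3 µM; 0.8–1.5 h to 10–20 min per step) in 100 mM Tris-HCl pH 7.5, 80 mM KCl, 4 mM MgCl2, without or with constant ligand. Apparent KD is the per-design median of normalised cluster binding-curve fits.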

MS2 coat protein [2] = experiment: apparent KD of MS2 coat protein, switch OFF state (with FMN for OFF switches, without FMN for ON switches); designed switch direction (-1 OFF switch, 1 ON switch): -1; higher = weaker reporter binding; conditions: FMN input: 0 or 200 uM; Eterna round: R93 (includes R88 designs)
Method in brief: as §1

## AACUAGUGAGGAUAUACAAGAAAACAAACAAAAAUGAAGGGACAUGAGGAUCACCCAUGUAGAAGGCACUAACA [Diamond 70]
MS2 coat protein [1]
  apparent KD of MS2 coat protein: 48.2 nM
MS2 coat protein [2]
  apparent KD of MS2 coat protein: 100 nM

## AACUGACAUGAGGAUCACCCAUGUCAGGAUAUGACUUCAAAAAAAAAAAAAAAUGAUGUCAGAAGGGACAUGGA [Design 64: Sub-opt MB]
MS2 coat protein [1]
  apparent KD of MS2 coat protein: 19.2 nM
MS2 coat protein [2]
  apparent KD of MS2 coat protein: 20.7 nM

## AACUGACAUGAGGAUCACCCAUGUCAGGAUAUGACUUCGAAAAAUAAAAUAAACGAUGUCAGAAGGGACAUGGA [Design 67: Sub-opt NB]
MS2 coat protein [1]
  apparent KD of MS2 coat protein: 21.5 nM
MS2 coat protein [2]
  apparent KD of MS2 coat protein: 41.1 nM

## AACUGUACAGGAUAUACAUGAGGAUCACCCAUGUGAGAAUUAAGUGGCGAACCACAAAGUAGAAGGGUACAGGA [Mat - Exclusion 3 - JL mod - D16]
MS2 coat protein [1]
  apparent KD of MS2 coat protein: 50.3 nM
MS2 coat protein [2]
  apparent KD of MS2 coat protein: 138 nM

## AAGAAACAUGAGGAUCACCCAUGUCAGGAUAUCUAAAAGAAAAGAAAAGAAAGAAGAAAGAGAAGGGACAAAGG [Neferirkare]
MS2 coat protein [1]
  apparent KD of MS2 coat protein: 39.2 nM
MS2 coat protein [2]
  apparent KD of MS2 coat protein: 61.3 nM

## AAGAAACAUGAGGAUCACCCAUGUGAGGAUAUGGAAAAGAAAAGAAAAGAAAGAAGAAUCAGAAGGCACAAAGG [Meryhathor]
MS2 coat protein [1]
  apparent KD of MS2 coat protein: 46.4 nM
MS2 coat protein [2]
  apparent KD of MS2 coat protein: 26.9 nM

## AAGAAAGAAGGAUAUACAAGGAAGAAAGAAAAGAAAAGAAAACAUGAGGAUCACCCAUGUAGAAGGUCUUAGAA [EteRNA is fun!]
MS2 coat protein [1]
  apparent KD of MS2 coat protein: 19.5 nM
MS2 coat protein [2]
  apparent KD of MS2 coat protein: 13.8 nM

## AAGAACAGAGGAUAUACAUGAGGAUCACCCAUGUAAAAGAAAGAAAGGGAAAAGAAAAGUAGAAGGCUGAAGAA [Neferkare Heqawaset Amenemnisu]
MS2 coat protein [1]
  apparent KD of MS2 coat protein: 32.3 nM
MS2 coat protein [2]
  apparent KD of MS2 coat protein: 43.4 nM

## AAGAACAGAGGAUAUACAUGAGGAUCACCCAUGUAAAAGAAAGAAGGGAAAGAGAAAAGUAGAAGGCUGAAGAA [Titaru]
MS2 coat protein [1]
  apparent KD of MS2 coat protein: 25 nM
MS2 coat protein [2]
  apparent KD of MS2 coat protein: 31.7 nM

## AAGAACGCAGGAUAUACAUGAGGAUCACCCAUGUAAAAGAAAGAAGGGAAAGAGAAAAGUAGAAGGGCGAAGAA [Usermaatre-setepenamun Iuput I]
MS2 coat protein [1]
  apparent KD of MS2 coat protein: 35.3 nM
MS2 coat protein [2]
  apparent KD of MS2 coat protein: 41.8 nM

## AAGAACGUAGGAUAUACAAAAUAAAAGAAAAGAAAGAAAGAACAUGAGGAUCACCCAUGUAGAAGGGCGAAGAA [Sekhemresewadjtawy Sobekhotep III]
MS2 coat protein [1]
  apparent KD of MS2 coat protein: 49.5 nM
MS2 coat protein [2]
  apparent KD of MS2 coat protein: 39.6 nM

## AAGAACUGAGGAUAUACAUGAGGAUCACCCAUGUAAAAGAAAGAAAAGGGAAAGAAAAGUAGAAGGCAGAAGAA [Nebmaatre Amenhotep III]
MS2 coat protein [1]
  apparent KD of MS2 coat protein: 36.9 nM
MS2 coat protein [2]
  apparent KD of MS2 coat protein: 42.8 nM

## AAGAAGACAGGAUAUACAUGAGGAUCACCCAUGUAAAAGAAAGAGGGAAAAGAGAAAAGUAGAAGGGUCAAGAA [Ptolemy III Euergetes I]
MS2 coat protein [1]
  apparent KD of MS2 coat protein: 16.8 nM
MS2 coat protein [2]
  apparent KD of MS2 coat protein: 20.5 nM

## AAGAAGACAGGAUAUACUAAAGAAAUGAAAAGAAAGAAAGAACAUGAGGAUCACCCAUGUAGAAGGGUCAAGAA [Sewahenre Senebmiu]
MS2 coat protein [1]
  apparent KD of MS2 coat protein: 66.2 nM
MS2 coat protein [2]
  apparent KD of MS2 coat protein: 45.1 nM

## AAGAAGCGAGGAUAUACAAAAUAAAAGAAAAGAAAGAAAGAACAUGAGGAUCACCCAUGUAGAAGGUGCAAGAA [Sehetepkare Intef IV]
MS2 coat protein [1]
  apparent KD of MS2 coat protein: 46.7 nM
MS2 coat protein [2]
  apparent KD of MS2 coat protein: 43.5 nM

## AAGAAGGUAGGAUAUACAAAAUAAAAGAAAAGAAAGAAAGAACAUGAGGAUCACCCAUGUAGAAGGACCAAGAA [Khutawyre Wegaf]
MS2 coat protein [1]
  apparent KD of MS2 coat protein: 34.3 nM
MS2 coat protein [2]
  apparent KD of MS2 coat protein: 17.7 nM

## AAGAAGGUAGGAUAUACAAAAUAAAAGAAAAGAAAGAAAGAACAUGAGGAUCACCCAUGUAGAAGGGCCAAGAA [Khendjer]
MS2 coat protein [1]
  apparent KD of MS2 coat protein: 84.2 nM
MS2 coat protein [2]
  apparent KD of MS2 coat protein: 35.3 nM

## AAGAAGGUAGGAUAUACAUGAGGAUCACCCAUGUAAAAGAAAGAAAAGGGAAAGAAAAGUAGAAGGACCAAGAA [Kheperkheperure Ay]
MS2 coat protein [1]
  apparent KD of MS2 coat protein: 32.9 nM
MS2 coat protein [2]
  apparent KD of MS2 coat protein: 44.3 nM

## AAGAAGUCAGGAUAUCCAAAAGAAAAGAAAAGAAAAGAAAAGGAGAAGGGACAUGAGGAUCACCCAUGUAAGAA [Khnemibre Ahmose II]
MS2 coat protein [1]
  apparent KD of MS2 coat protein: 71.3 nM
MS2 coat protein [2]
  apparent KD of MS2 coat protein: 20.9 nM

## AAGAAGUCAGGAUAUGUCUGUGCGAAAAAAAAAAAGUGCAGACAGAAGGGACAUGAGGAUCACCCAUGUGGAAA [Florian 65% 7]
MS2 coat protein [1]
  apparent KD of MS2 coat protein: 46.8 nM
MS2 coat protein [2]
  apparent KD of MS2 coat protein: 55.3 nM

## AAGAAGUGAGGAUAUACAUGAACGAAAAAAAAAAAGAGCAUGUAGAAGGCACAUGAGGAUCACCCAUGUCAAAA [Georg Simmel]
MS2 coat protein [1]
  apparent KD of MS2 coat protein: 29.3 nM
MS2 coat protein [2]
  apparent KD of MS2 coat protein: 27.8 nM

## AAGAAGUGAGGAUAUCGAAGACAGACGAAAAGUCUGUCAAGCGAGAAGGCACAUGAGGAUCACCCAUGUGGAAG [Mat - Exaclusion 4 - Eli mod - D80]
MS2 coat protein [1]
  apparent KD of MS2 coat protein: 31.8 nM
MS2 coat protein [2]
  apparent KD of MS2 coat protein: 33.4 nM

## AAGAAUCAAGGAUAUACAAGGAAGAAAGAAAAGAAAAGAAAACAUGAGGAUCACCCAUGUAGAAGGUGAUAGAA [EteRNA is fun!]
MS2 coat protein [1]
  apparent KD of MS2 coat protein: 327 nM
MS2 coat protein [2]
  apparent KD of MS2 coat protein: 846 nM

## AAGAUGUCAGGAUAUACAUAAAUAAAAAAUUAUGUUAAAACACAUGAGGAUCACCCAUGUAGAAGGGACAUCAA [AJ 7]
MS2 coat protein [1]
  apparent KD of MS2 coat protein: 17.2 nM
MS2 coat protein [2]
  apparent KD of MS2 coat protein: 15.5 nM

## AAGGAGUAAGGAUAUCGGAAAGGACACGAAAGUGACAAAGACGAGAAGGUACAUGAGGAUCACCCAUGUAAAAA [milkweed 23]
MS2 coat protein [1]
  apparent KD of MS2 coat protein: 24.9 nM
MS2 coat protein [2]
  apparent KD of MS2 coat protein: 14.5 nM

## AAGGAGUGAGGAUAUCGGAAAGGACACGAAAGUGACAAAGACGAGAAGGCACAUGAGGAUCACCCAUGUAAAAA [milkweed 22]
MS2 coat protein [1]
  apparent KD of MS2 coat protein: 38.7 nM
MS2 coat protein [2]
  apparent KD of MS2 coat protein: 34.6 nM

## AAGGGACAUGAGGAUCACCCAUGUCAGGAUAUGCUAUGGAAAAUAAAAAUAAAACAUAGCAGAAGGGACAAAAA [Denovo 4]
MS2 coat protein [1]
  apparent KD of MS2 coat protein: 38.5 nM
MS2 coat protein [2]
  apparent KD of MS2 coat protein: 53.1 nM

## AAGGGACAUGAGGAUCACCCAUGUGAGGAUAUGAUGCGAAUAAAGAAAGAAUAAAGCAUCAGAAGGCACACCAA [Mat - Exclusion 1 - Eli mod - D66]
MS2 coat protein [1]
  apparent KD of MS2 coat protein: 77.2 nM
MS2 coat protein [2]
  apparent KD of MS2 coat protein: 109 nM

## AAGUCCAUAGGAUAUAUAUGGAUAUACAUUUAUGUAGAACUACAUGAGGAUCACCCAUGUAGAAGGAUGGAAUA [Mat - Same state - Mayanna Mod - D141]
MS2 coat protein [1]
  apparent KD of MS2 coat protein: 19.5 nM
MS2 coat protein [2]
  apparent KD of MS2 coat protein: 14.1 nM

## AAGUUAUUAGGAUAUACUUGUGCGAUCCAUACGUUGAUAUUACAUGAGGAUCACCCAUGUAGAAGGAAUAAAAA [JR_Exc002_Sub414]
MS2 coat protein [1]
  apparent KD of MS2 coat protein: 48.2 nM
MS2 coat protein [2]
  apparent KD of MS2 coat protein: 45.2 nM

## AAGUUGACAGGAUAUACUUGGGCAACAAAUAAACUAAUAUAACAUGAGGAUCACCCAUGUAGAAGGGUCAGAAA [JR_Exc002_Sub207]
MS2 coat protein [1]
  apparent KD of MS2 coat protein: 46.3 nM
MS2 coat protein [2]
  apparent KD of MS2 coat protein: 56.4 nM

## AAUAGUGAAGGAUAUACAGGAGAAGUACGAUAAAAGAAAGAACAUGAGGAUCACCCAUGUAGAAGGUCAGAAGU [JR_Exc002_Sub1228]
MS2 coat protein [1]
  apparent KD of MS2 coat protein: 33.6 nM
MS2 coat protein [2]
  apparent KD of MS2 coat protein: 26.3 nM

## ACAAACCUAGGAUAUACAUGAGGAUCACCCAUGUACAAAGGCGUAGGCGACAAAAGAGGUAGAAGGAGGAAAGG [Disoed]
MS2 coat protein [1]
  apparent KD of MS2 coat protein: 21.9 nM
MS2 coat protein [2]
  apparent KD of MS2 coat protein: 22.9 nM

## ACAAGAUCAGGAUAUACAUGAGGAUCACCCAUGUGAAAGAACGAUUAACGACCAGCAAGUAGAAGGGAUCAGGA [Ruby 82]
MS2 coat protein [1]
  apparent KD of MS2 coat protein: 20.5 nM
MS2 coat protein [2]
  apparent KD of MS2 coat protein: 28.5 nM

## ACAGUUACAGGAUAUACAUAGGAAAAAAAAAAAAAAAUUCAACAUGAGGAUCACCCAUGUAGAAGGGUAACUGA [Ex2 Design 173: Random 2B]
MS2 coat protein [1]
  apparent KD of MS2 coat protein: 93.3 nM
MS2 coat protein [2]
  apparent KD of MS2 coat protein: 144 nM

## ACGAACCUAGGAUAUACAUGAGGAUCACCCAUGUACAACUAUCCAUGAAUGACACUCGGUAGAAGGAGGAUCAA [Rileenen]
MS2 coat protein [1]
  apparent KD of MS2 coat protein: 15 nM
MS2 coat protein [2]
  apparent KD of MS2 coat protein: 22.9 nM

## ACUUGACAUGAGGAUCACCCAUGUCAGGAUAUAGUAGGACAAAUAAAUAAAAGUUCUACUAGAAGGGAUAUGGA [Design 18: G-U+ 3]
MS2 coat protein [1]
  apparent KD of MS2 coat protein: 16.7 nM
MS2 coat protein [2]
  apparent KD of MS2 coat protein: 15.7 nM

## AGAAUACAUGAGGAUCACCCAUGUGAGGAUAUCAAAAGAAAAAGAAAAGAAAAGAAAAUGAGAAGGCACAAAAG [EX 1 May 14]
MS2 coat protein [1]
  apparent KD of MS2 coat protein: 48.3 nM
MS2 coat protein [2]
  apparent KD of MS2 coat protein: 51.7 nM

## AGCAAACAUGAGGAUCACCCAUGUCAGGAUAUGAACGAAAUAAAUAAAAAAUAAAAGUUCAGAAGGGACGAGCA [Mat - Exclusion 1 - Eli mod - D25]
MS2 coat protein [1]
  apparent KD of MS2 coat protein: 32.4 nM
MS2 coat protein [2]
  apparent KD of MS2 coat protein: 42.9 nM

## AGCAAACAUGAGGAUCACCCAUGUGAGGAUAUGAACGAAAUAAAAUAAAAAUAAAAGUUCAGAAGGCACGAGCA [Mat - Exclusion 1 - Eli mod - D26]
MS2 coat protein [1]
  apparent KD of MS2 coat protein: 27.3 nM
MS2 coat protein [2]
  apparent KD of MS2 coat protein: 37.4 nM
